B1: NanK (N-acetylmannosamine kinase) (Escherichia coli K-12) (protein)
chain: MTTLAIDIGGTKLAAALIGADGQIRDRRELPTPASQTPEALRDALSALVSPLQAHAQRVAIASTGIIRDGSLLALNPHNLGGLLHFPLVKTLEQLTNLPTIAINDAQAAAWAEFQALDGDITDMVFITVSTGVGGGVVSGCKLLTGPGGLAGHIGHTLADPHGPVCGCGRTGCVEAIASGRGIAAAAQGELAGADAKTIFTRAGQGDEQAQQLIHRSARTLARLIADIKATTDCQCVVVGGSVGLAEGYLALVETYLAQEPAAFHVDLLAAHYRHDAGLLGAALLAQGEKL
B2: NanK (N-acetylmannosamine kinase) (Escherichia coli K-12; L84P) (protein)
chain: MTTLAIDIGGTKLAAALIGADGQIRDRRELPTPASQTPEALRDALSALVSPLQAHAQRVAIASTGIIRDGSLLALNPHNLGGLPHFPLVKTLEQLTNLPTIAINDAQAAAWAEFQALDGDITDMVFITVSTGVGGGVVSGCKLLTGPGGLAGHIGHTLADPHGPVCGCGRTGCVEAIASGRGIAAAAQGELAGADAKTIFTRAGQGDEQAQQLIHRSARTLARLIADIKATTDCQCVVVGGSVGLAEGYLALVETYLAQEPAAFHVDLLAAHYRHDAGLLGAALLAQGEKL
B3: NanK (N-acetylmannosamine kinase) (Escherichia coli K-12; L84R) (protein)
chain: MTTLAIDIGGTKLAAALIGADGQIRDRRELPTPASQTPEALRDALSALVSPLQAHAQRVAIASTGIIRDGSLLALNPHNLGGLRHFPLVKTLEQLTNLPTIAINDAQAAAWAEFQALDGDITDMVFITVSTGVGGGVVSGCKLLTGPGGLAGHIGHTLADPHGPVCGCGRTGCVEAIASGRGIAAAAQGELAGADAKTIFTRAGQGDEQAQQLIHRSARTLARLIADIKATTDCQCVVVGGSVGLAEGYLALVETYLAQEPAAFHVDLLAAHYRHDAGLLGAALLAQGEKL

Data on 3 proteins can be found in paper PMC10519446.

Substrate in the data set: Nc1ncnc2c1ncn2[C@@H]1O[C@H](COP(=O)(O)OP(=O)(O)OP(=O)(O)O)[C@@H](O)[C@H]1O
The data set is described as follows: purified protein. The settings on record: co-substrate N-acetylmannosamine.
With B1, the Km entry is given as “(1.4 ± 0.2)×10^−4 M” and the kcat worked out at 29 ± 0.5 s⁻¹.

As to B2, the Km result was “(1.4 ± 0.3)×10^−4 M” and the kcat worked out at 13 ± 0.2 s⁻¹.

As to B3, the Km entry was “(8.3 ± 1.4)×10^−5 M” and the kcat worked out at 17 ± 0.3 s⁻¹.
